Data on one protein can be found in publication PMC4141209.

Substrate in this data set: O=C(O)[C@H]1NCC[C@@H]1O
As to the kind of experiment: purified protein. As to conditions: pH 8.0 Tris-HCl, 50 °C, 0.15 mM NADH, TlLhpI as coupling enzyme.

B1: TlLhpH (Thermococcus litoralis DSM 5473) (protein)
chain: MFKKLENLEKWEPPKDWMVIKTLDTHTAGEPLRIILSGFPEIPGKTILEKRRYLMENLDHLRKALMWEPRGHADMYGAIITEPVSEEADFGVIFMHNEGYSTMCGHATIALGKVAVECGLVEAKEPITEIKMDSPAGLIKIYVKVRDGKVEKVYFHNVPSFVLFKDETINVPGIGEVKYDLAYGGAFYAFVNAEEIGLKCTPEYYRQLIDVGMKIKRAIMSEKEIRHPFEEDLSFLYGTIFIGEPEDENSHSRHVCIFADGEVDRSPTGTGVSARLAILYEKGEIDIGEEITIESIIGTKFTGKVVEETRYGLYRAIIPEVGGNAYIVAKNTFLIDPQDPLKYGFFLR
Take B1: the Km stood at 288 µM and the kcat turned out to be 28.5 s⁻¹.
